Holding throughout (format): cell-based
The subject of one experiment is gene editing with dCas9. Description: Screen of 322 new SSAP proteins, gene editing activity with dCas9 (Table 5). Further details: dCas9 with SSAP activity: scale not given here. An outline of the steps:
(§1)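 The 322 SSAP proteins were found in sequence data and then synthesized. Each was screened for gene editing activity when paired with Cas9 and with dCas9.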

In the next experiment the test system is gene editing with Cas9. As to the kind of experiment: Screen of 322 new SSAP proteins, gene editing activity with Cas9 (Table 5). Further details: Cas9 with SSAP activity: scale not given here. An outline of the steps:
as §1

The test system of experiment [1] is gene editing with Cas9 and dCas9. As to the kind of experiment: Screen of 322 new SSAP proteins, activity across all experiments (Cas9 and dCas9, Table 5). Also noted: scale not given here. Put shortly: as §1

B1: SSAP_168: SEQ ID NO: 337; Romboutsia lituseburensis (protein, listed as Romboutsia lituseburensis)
chain: SNLKNVLKNQEDKGQGITVNPTYAMKQLMIKMKNDIDLALPKNLSSERFQKVSMSAFNNNEKLQNCEPTTFIAAMMQSAQLGLEPNTPLGQVYLIPHNLNGVDKVQFQVGYKGLLQLAHRSGKLKTLYAHEVKENDEFEIDYGLEQKLIHKPLLKGNRGDVIGYYAVYHLEPSGYSFEFMTYDEVAKHGKKYSKDFEGGIWEKDFDSMAKKTVIKKLLKYAPLSIEMQKAVAFDESVKSSIDSDMLLVESIGE
Regarding B1, in the experiment with gene editing with dCas9, the “dCas9 with SSAP activity” value is −5.210 and the “dCas9 with SSAP activity (normalized)” value is −0.836. For the same molecule, in the experiment with gene editing with Cas9, the “Cas9 with SSAP activity” value was determined as 0.735 and the “Cas9 with SSAP activity (normalized)” value is recorded as 1.158. For the same molecule, in experiment [1], the “Activity across all experiments” value was −2.237.

B2: SSAP_140: SEQ ID NO: 309; Staphylococcus equorum (protein, listed as Staphylococcus equorum)
chain: ATNETLKQKVVERKPNGVKEQSPKTQLNHLLKKMAPEIQRALPKHMDSDRMARIAMTAVSNTPKLLECDQMSFIAALMQASQLGVEPNTGLGQAYLIPYAGKVQFQLSYKGLIDLATRSGQYKSIYAHEVYTNDEFEYRYGLFKDLIHIPSQEPEGNPIGYYAVYHLKNGGYDFVYWTRERVDKHAKEFSQAVQKGWTSPWITNYDAMAKKTVLKEVLKYAPKSIEMNKAVENDSTIKEEIDKDMSTVIDVTDYSEVEEQESLETGGQTSK
As for B2, in the experiment on gene editing with dCas9, the “dCas9 with SSAP activity” value is −5.000 and the “dCas9 with SSAP activity (normalized)” value was −0.780. In the experiment with gene editing with Cas9, the “Cas9 with SSAP activity” value is −1.374 and the “Cas9 with SSAP activity (normalized)” value is −0.848. The “Activity across all experiments” value in experiment [1] is −3.187.

B3: SSAP_85: SEQ ID NO: 254 (protein)
chain: TASKQTDIFSFVSGGEDITITLADIKNYFCANATDQECVLFGQLCKANGLNPWLKEAYLIKYDKNAPAAMVTGKDAYMKRANEHPAFDGYEAGVKVYLPDVGQVEYREGTAYYEDLGEQLIGGYAKVYRKDRSRPYYEEVPLKEYDTKQSKWKTSPATMIRKVALVHALREAFPTNIQGMYDADETPYAADYEGSFREMDDPTPAPSMRGRIAPAPVADPLEDLEADVIEAGDVE
On to B3, for which, in the experiment with gene editing with dCas9, the “dCas9 with SSAP activity” value is on record as −5.091 and the “dCas9 with SSAP activity (normalized)” value is listed as −1.071. Further, in the experiment with gene editing with Cas9, the “Cas9 with SSAP activity” value was −0.312 and the “Cas9 with SSAP activity (normalized)” value is −0.125. Moreover, the “Activity across all experiments” value in experiment [1] is on record as −2.702.

B4: SSAP_248: SEQ ID NO: 417; Peptoniphilus senegalensis (protein, listed as Peptoniphilus senegalensis)
chain: TNQIARKPVNEIKNVLSVPSVRNLFDNALADNAGAFVSSLIDLYGGDSYLQNCEPKDVVMEALKAATLKLPINKNLGFGYVVPFKNKNGKLVPTFIIGYKGLIQLAMRTGQYKAINSGIIYEGMEIKEDVLRGTLEIKGSKQSEKIKGYFAYFQLINGFEKALYMDVEEAADWGRKYSKSFAKGPWTTEFDAQAQKTCLRRLLSKYGVLSTEMQRLEKTEEDVDIAVGTIENNAVEELNIPSSQADYIVDEETGEILDDEEIVAPF
Regarding B4, in the experiment with gene editing with dCas9, the “dCas9 with SSAP activity” value was −5.272 and the “dCas9 with SSAP activity (normalized)” value is −0.814. Further, in the experiment with gene editing with Cas9, the “Cas9 with SSAP activity” value is −0.854 and the “Cas9 with SSAP activity (normalized)” value is on record as −1.210. Further, in experiment [1], the “Activity across all experiments” value is −3.063.

B5: SSAP_251: SEQ ID NO: 420; Hathewaya proteolytica (protein, listed as Hathewaya proteolytica)
chain: ADSKKELILKESYSVLDRLIETKISAMPKDFNRTRFLQNCMTVLQDTKDIEKCQPISVARTLLKGAFLGLDFFQKECYAIPYGGTLQFQTDYKGETKMAKKYSIRPIKDIYAKVVREDDLFEEEIKEGQQFVNFKPIPFSDKPIIGAFAVVLYQDGGMEYETMSKTQIEGIRDNFSKMKNGLMWTKTPEEAYKKTVLRRLTKKIEKDFDTIEQAKTYEETSDSEFKKEEKCNEKSVFDVEYSEVESEELEQQTMLENSPFGGEQ
Consider B5, for which, in the experiment on gene editing with dCas9, the “dCas9 with SSAP activity” value is reported as −5.041 and the “dCas9 with SSAP activity (normalized)” value is −0.760. In the experiment with gene editing with Cas9, the “Cas9 with SSAP activity” value is reported as −0.983 and the “Cas9 with SSAP activity (normalized)” value was −1.345. Besides, the “Activity across all experiments” value in experiment [1] is −3.012.

B6: SSAP_61: SEQ ID NO: 230 (protein)
chain: ATSLKRAVTGDGKPATVQQLLTNPKIKSQIALALPQHLTPERLTRIVLTEIRRTPALAKCKPESLLAAVMQCAQLGLEPGGSLGHAWLMPFKNEVQFIIGYRGMIDLARRSGQVLSIEARGVYESDTFHVSFGLEPDLTHQPDWDPADRGKLAFVYAVARLKDGGFQFDVMSRAEVEKIRAQSPAGKSGPWVTHFEEMAKKTVIRRLFKYLPVSVEMARAVGLDEAAERGEQSDAIDADCVIESEEEATPEEKGDSAA
As for B6, in the experiment on gene editing with dCas9, the “dCas9 with SSAP activity” value is given as −5.258 and the “dCas9 with SSAP activity (normalized)” value is listed as −0.804. Besides, in the experiment with gene editing with Cas9, the “Cas9 with SSAP activity” value was −1.348 and the “Cas9 with SSAP activity (normalized)” value was −0.539. The “Activity across all experiments” value in experiment [1] is given as −3.303.

B7: SSAP_110: SEQ ID NO: 279; Aneurinibacillus tyrosinisolvens (protein, listed as Aneurinibacillus tyrosinisolvens)
chain: SDLKEKLEKRANETEAAPPSPAQTIAAYLKRMEPEIARALPKHMDVERLTRIALTTIRTNPRLLECTVPSLLGAVMQAAQLGLEPGLLGQCYIIPHGREATFIIGYKGMIDLARRSGNIKSIYAHDVRENDEFEYEYGLHPFLKHRPAMTDRGKFIGVYAVAHFNDGGYQFEFMPYEEIERRKLRSRSYKNGPWVTDYEEMAKKTVIRHMFKYLPLSVEIMRSAAQDETVRPDLTSDPVSIYERPIEGKIITAEDVQPEEIPNVPDAEQGDV
B7: in the experiment with gene editing with dCas9, the “dCas9 with SSAP activity” value is −5.104 and the “dCas9 with SSAP activity (normalized)” value was −1.491. Further, in the experiment with gene editing with Cas9, the “Cas9 with SSAP activity” value is reported as −2.674 and the “Cas9 with SSAP activity (normalized)” value was −0.477. In experiment [1], the “Activity across all experiments” value is −3.889.

B8: SSAP_244: SEQ ID NO: 413; Nicoletella semolina (protein, listed as Nicoletella semolina)
chain: LKNADPQSVFNAACMAATLNLPIQNGLGFAYIVPYQNKKEKKTEAQFQLGYKGLIQLAQRSGQFKRLVAVPVYEKQLIAEDPINGFEFDWKQKPENGEKPIGYYAYFKLLNDFTAELYMTTHEVDEHAQRYSQTYRTYLDKKSKGQWASSVWADNFEAMALKTVMKLLLSKQAPLSVEMQQAVLADQAVVKNVETNEFSYVDNQIEEAEYTELKVSTDIFEKCKQSILNKETTLQELCDSGYEFSQEQYAELEKLEVE
As for B8, in the experiment on gene editing with dCas9, the “dCas9 with SSAP activity” value is −4.966 and the “dCas9 with SSAP activity (normalized)” value is recorded as −0.819. Also, the “Cas9 with SSAP activity” value in the experiment on gene editing with Cas9 was −8.469. In experiment [1], the “Activity across all experiments” value is given as −6.718.

B9: SSAP_247: SEQ ID NO: 416; Ruminococcus sp. CAG: 579 (protein, listed as Ruminococcus sp.)
chain: NERTNLQYAPAPVERFKECLNSHEIKARLKNSLKNNWTQFQTSMLDLYSGDAYLQKCDPMAVALECVKAATLDLPISKSLGFAYVVPYNNVPTFTLGYKGLIQLAQRTGQYRTINADVVYEGEIRGADKLSGMVDLSGERTGDEVVGYFAYFKLINGFEKMIYMTRAEAEKWRDDYSPSAKSKYSPWRTDFDKMALKTCIRRLISKYGIMSVEMQGVMTEEAEPRAAAAAKRAEETVQANANSKVIDIDAAPPAANESPAEAAPQPDF
Consider B9, for which, in the experiment on gene editing with dCas9, the “dCas9 with SSAP activity” value was 0.549 and the “dCas9 with SSAP activity (normalized)” value is listed as 0.332. Moreover, in the experiment with gene editing with Cas9, the “Cas9 with SSAP activity” value is −2.602 and the “Cas9 with SSAP activity (normalized)” value was −3.388. Also, the “Activity across all experiments” value in experiment [1] is listed as −1.027.

These data come from patent publication US20250034594A1, “RNA-GUIDED GENOME RECOMBINEERING AT KILOBASE SCALE” (THE BOARD OF TRUSTEES OF THE LELAND STANFORD JUNIOR …, priority 2021, published 2025).
